Laboratory results published in article PMC10397247.

Experiments:
4H2691-bN = molecular target: T1, 4H2691-bN; test: two-hybrid library CCNG1;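 also: natural log of median RNA to DNA barcode read ratio; higher means stronger binding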
T1 chain: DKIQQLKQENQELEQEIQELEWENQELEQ

4H3070-bN = molecular target: T2, 4H3070-bN; test: two-hybrid library CCNG1;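 also: natural log of median RNA to DNA barcode read ratio; higher means stronger binding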
T2 chain: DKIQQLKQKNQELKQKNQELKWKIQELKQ

4H342-bN = molecular target: T3, 4H342-bN; test: two-hybrid library CCNG1;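 also: natural log of median RNA to DNA barcode read ratio; higher means stronger binding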
T3 chain: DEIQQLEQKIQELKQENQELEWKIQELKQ

4H3632-bN = molecular target: T4, 4H3632-bN; test: two-hybrid library CCNG1;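 also: natural log of median RNA to DNA barcode read ratio; higher means stronger binding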
T4 chain: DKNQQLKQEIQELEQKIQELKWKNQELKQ

4H496-bN = molecular target: T5, 4H496-bN; test: two-hybrid library CCNG1;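 also: natural log of median RNA to DNA barcode read ratio; higher means stronger binding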
T5 chain: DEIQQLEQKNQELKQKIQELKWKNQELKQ

4H122-AA = molecular target: T6, 4H122-AA; test: two-hybrid library CCmax;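 also: natural log of median RNA to DNA barcode read ratio; higher means stronger binding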
T6 chain: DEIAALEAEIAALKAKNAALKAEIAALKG

4H1324-AA = molecular target: T7, 4H1324-AA; test: two-hybrid library CCmax; details: mean of both orientations
T7 chain: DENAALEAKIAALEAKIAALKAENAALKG

4H1352-AA = molecular target: T8, 4H1352-AA; test: two-hybrid library CCmax; details: mean of both orientations
T8 chain: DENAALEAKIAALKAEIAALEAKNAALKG

4H1401-AA = molecular target: T9, 4H1401-AA; test: two-hybrid library CCmax; details: mean of both orientations
T9 chain: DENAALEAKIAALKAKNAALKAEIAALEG

4H1552-AA = molecular target: T10, 4H1552-AA; test: two-hybrid library CCmax; details: mean of both orientations
T10 chain: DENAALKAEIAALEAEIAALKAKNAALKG

4H1636-AA = molecular target: T11, 4H1636-AA; test: two-hybrid library CCmax; details: mean of both orientations
T11 chain: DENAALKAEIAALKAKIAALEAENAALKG

4H1867-AA = molecular target: T12, 4H1867-AA; test: two-hybrid library CCmax; details: mean of both orientations
T12 chain: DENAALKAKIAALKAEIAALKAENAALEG

4H2078-AA = molecular target: T13, 4H2078-AA; test: two-hybrid library CCmax; details: mean of both orientations
T13 chain: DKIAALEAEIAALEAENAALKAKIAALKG

4H2151-AA = molecular target: T14, 4H2151-AA; test: two-hybrid library CCmax; details: mean of both orientations
T14 chain: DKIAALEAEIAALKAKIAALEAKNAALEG

4H2165-AA = molecular target: T15, 4H2165-AA; test: two-hybrid library CCmax; details: mean of both orientations
T15 chain: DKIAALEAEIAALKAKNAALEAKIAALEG

4H2190-AA = molecular target: T16, 4H2190-AA; test: two-hybrid library CCmax; details: mean of both orientations
T16 chain: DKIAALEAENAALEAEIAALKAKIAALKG

4H2277-AA = molecular target: T17, 4H2277-AA; test: two-hybrid library CCmax; details: mean of both orientations
T17 chain: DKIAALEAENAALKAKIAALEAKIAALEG

4H234-AA = molecular target: T18, 4H234-AA; test: two-hybrid library CCmax; details: mean of both orientations
T18 chain: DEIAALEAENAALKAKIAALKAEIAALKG

4H2354-AA = molecular target: T19, 4H2354-AA; test: two-hybrid library CCmax; details: mean of both orientations
T19 chain: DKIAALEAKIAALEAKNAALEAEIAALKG

4H2393-AA = molecular target: T20, 4H2393-AA; test: two-hybrid library CCmax; details: mean of both orientations
T20 chain: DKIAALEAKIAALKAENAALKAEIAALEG

4H2466-AA = molecular target: T21, 4H2466-AA; test: two-hybrid library CCmax; details: mean of both orientations
T21 chain: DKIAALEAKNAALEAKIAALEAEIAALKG

4H2505-AA = molecular target: T22, 4H2505-AA; test: two-hybrid library CCmax; details: mean of both orientations
T22 chain: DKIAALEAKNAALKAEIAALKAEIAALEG

4H2575-AA = molecular target: T23, 4H2575-AA; test: two-hybrid library CCmax; details: mean of both orientations
T23 chain: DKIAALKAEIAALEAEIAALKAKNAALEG

4H2617-AA = molecular target: T24, 4H2617-AA; test: two-hybrid library CCmax; details: mean of both orientations
T24 chain: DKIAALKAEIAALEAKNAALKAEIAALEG

4H2642-AA = molecular target: T25, 4H2642-AA; test: two-hybrid library CCmax; details: mean of both orientations
T25 chain: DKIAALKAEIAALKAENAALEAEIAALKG

4H2729-AA = molecular target: T26, 4H2729-AA; test: two-hybrid library CCmax; details: mean of both orientations
T26 chain: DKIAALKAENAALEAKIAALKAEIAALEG

4H2754-AA = molecular target: T27, 4H2754-AA; test: two-hybrid library CCmax; details: mean of both orientations
T27 chain: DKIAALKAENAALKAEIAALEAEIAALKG

4H2837-AA = molecular target: T28, 4H2837-AA; test: two-hybrid library CCmax; details: mean of both orientations
T28 chain: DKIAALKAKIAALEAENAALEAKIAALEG

4H2883-AA = molecular target: T29, 4H2883-AA; test: two-hybrid library CCmax; details: mean of both orientations
T29 chain: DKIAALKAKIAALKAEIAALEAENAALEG

4H2944-AA = molecular target: T30, 4H2944-AA; test: two-hybrid library CCmax; details: mean of both orientations
T30 chain: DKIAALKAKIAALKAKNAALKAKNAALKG

4H2949-AA = molecular target: T31, 4H2949-AA; test: two-hybrid library CCmax; details: mean of both orientations
T31 chain: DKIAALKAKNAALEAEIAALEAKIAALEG

4H3112-AA = molecular target: T32, 4H3112-AA; test: two-hybrid library CCmax; details: mean of both orientations
T32 chain: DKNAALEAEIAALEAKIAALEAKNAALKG

4H317-AA = molecular target: T33, 4H317-AA; test: two-hybrid library CCmax; details: mean of both orientations
T33 chain: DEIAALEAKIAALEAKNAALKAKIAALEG

4H3343-AA = molecular target: T34, 4H3343-AA; test: two-hybrid library CCmax; details: mean of both orientations
T34 chain: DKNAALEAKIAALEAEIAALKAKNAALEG

4H335-AA = molecular target: T35, 4H335-AA; test: two-hybrid library CCmax; details: mean of both orientations
T35 chain: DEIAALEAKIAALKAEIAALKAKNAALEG

4H342-AA = molecular target: T36, 4H342-AA; test: two-hybrid library CCmax; details: mean of both orientations
T36 chain: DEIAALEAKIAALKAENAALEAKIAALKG

4H3427-AA = molecular target: T37, 4H3427-AA; test: two-hybrid library CCmax; details: mean of both orientations
T37 chain: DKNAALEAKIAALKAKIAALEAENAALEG

4H3606-AA = molecular target: T38, 4H3606-AA; test: two-hybrid library CCmax; details: mean of both orientations
T38 chain: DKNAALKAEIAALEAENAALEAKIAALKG

4H3627-AA = molecular target: T39, 4H3627-AA; test: two-hybrid library CCmax; details: mean of both orientations
T39 chain: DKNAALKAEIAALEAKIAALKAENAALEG

4H3655-AA = molecular target: T40, 4H3655-AA; test: two-hybrid library CCmax; details: mean of both orientations
T40 chain: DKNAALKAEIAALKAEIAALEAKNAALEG

4H3844-AA = molecular target: T41, 4H3844-AA; test: two-hybrid library CCmax; details: mean of both orientations
T41 chain: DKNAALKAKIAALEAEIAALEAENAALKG

4H3921-AA = molecular target: T42, 4H3921-AA; test: two-hybrid library CCmax; details: mean of both orientations
T42 chain: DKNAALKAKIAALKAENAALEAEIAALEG

4H429-AA = molecular target: T43, 4H429-AA; test: two-hybrid library CCmax
T43 chain: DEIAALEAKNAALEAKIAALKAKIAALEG

4H454-AA = molecular target: T44, 4H454-AA; test: two-hybrid library CCmax; details: mean of both orientations
T44 chain: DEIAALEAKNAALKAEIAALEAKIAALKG

4H48-AA = molecular target: T45, 4H48-AA; test: two-hybrid library CCmax
T45 chain: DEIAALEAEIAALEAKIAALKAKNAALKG

4H566-AA = molecular target: T46, 4H566-AA; test: two-hybrid library CCmax; details: mean of both orientations
T46 chain: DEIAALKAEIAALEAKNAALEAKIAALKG

4H605-AA = molecular target: T47, 4H605-AA; test: two-hybrid library CCmax; details: mean of both orientations
T47 chain: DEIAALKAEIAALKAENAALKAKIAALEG

4H678-AA = molecular target: T48, 4H678-AA; test: two-hybrid library CCmax; details: mean of both orientations
T48 chain: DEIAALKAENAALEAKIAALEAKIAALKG

4H717-AA = molecular target: T49, 4H717-AA; test: two-hybrid library CCmax; details: mean of both orientations
T49 chain: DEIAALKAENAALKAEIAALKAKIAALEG

4H780-AA = molecular target: T50, 4H780-AA; test: two-hybrid library CCmax; details: mean of both orientations
T50 chain: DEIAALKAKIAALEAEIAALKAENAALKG

4H794-AA = molecular target: T51, 4H794-AA; test: two-hybrid library CCmax; details: mean of both orientations
T51 chain: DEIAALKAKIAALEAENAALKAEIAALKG

4H881-AA = molecular target: T52, 4H881-AA; test: two-hybrid library CCmax; details: mean of both orientations
T52 chain: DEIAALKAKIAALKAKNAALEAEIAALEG

4H906-AA = molecular target: T53, 4H906-AA; test: two-hybrid library CCmax; details: mean of both orientations
T53 chain: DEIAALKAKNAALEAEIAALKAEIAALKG

4H993-AA = molecular target: T54, 4H993-AA; test: two-hybrid library CCmax; details: mean of both orientations
T54 chain: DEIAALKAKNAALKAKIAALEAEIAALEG

## DKIQQLKQENQELEQEIQELEWENQELEQ [4H2691-bN]
4H2691-bN
  interaction score: -0.448
4H3070-bN
  interaction score: -1.24
4H342-bN
  interaction score: -0.0194
4H3632-bN
  interaction score: -1.21
4H496-bN
  interaction score: 1.01

## DEIAALEAEIAALKAKNAALKAEIAALKG [4H122-AA]
4H122-AA
  interaction score: 1.61
4H1324-AA
  interaction score: -1.09
4H1352-AA
  interaction score: -1.3
4H1401-AA
  interaction score: -1.2
4H1552-AA
  interaction score: -1.07
4H1636-AA
  interaction score: -1.44
4H1867-AA
  interaction score: 1.01
4H2078-AA
  interaction score: 2.3
4H2151-AA
  interaction score: -1.58
4H2165-AA
  interaction score: -0.0868
4H2190-AA
  interaction score: 1.57
4H2277-AA
  interaction score: -1.29
4H234-AA
  interaction score: -1.28
4H2354-AA
  interaction score: 0.207
4H2393-AA
  interaction score: 1.93
4H2466-AA
  interaction score: 0.13
4H2505-AA
  interaction score: -1.39
4H2575-AA
  interaction score: -0.393
4H2617-AA
  interaction score: 1.96
4H2642-AA
  interaction score: 1.83
4H2729-AA
  interaction score: 0.657
4H2754-AA
  interaction score: 0.606
4H2837-AA
  interaction score: 2.11
4H2883-AA
  interaction score: 0.209
4H2944-AA
  interaction score: -1.12
4H2949-AA
  interaction score: -0.323
4H3112-AA
  interaction score: -0.199
4H317-AA
  interaction score: -1.2
4H3343-AA
  interaction score: -1.31
4H335-AA
  interaction score: -1.07
4H342-AA
  interaction score: 1.76
4H3427-AA
  interaction score: -0.449
4H3606-AA
  interaction score: 2.36
4H3627-AA
  interaction score: -1.12
4H3655-AA
  interaction score: -1.14
4H3844-AA
  interaction score: -0.909
4H3921-AA
  interaction score: 2.16
4H429-AA
  interaction score: -0.548
4H454-AA
  interaction score: -0.403
4H48-AA
  interaction score: -0.383
4H566-AA
  interaction score: 1.5
4H605-AA
  interaction score: 0.129
4H678-AA
  interaction score: 1.05
4H717-AA
  interaction score: -1.17
4H780-AA
  interaction score: -1.74
4H794-AA
  interaction score: 1.48
4H881-AA
  interaction score: 1.43
4H906-AA
  interaction score: -1.43
4H993-AA
  interaction score: -1.48
